Where two headings read alike, the source gives them in different places.
Key:
rLen c 3 [1] = molecular target: T1, rLen c 3 (Lens culinaris, UniProt A0AT29); assay: Effect of lipid ligands on gastrointestinal digestion of rLen c 3; type: in vitro ADME, lentil
T1 construct: with the formation of the large fragment 1–80 and the protein without C-terminal Phe93; His8-TrxL (octahistidine-thioredoxin carrier) (N, cleaved yes); made in house; host or cells: Escherichia coli BL-21 (DE3)
T1 sequence (A0AT29 26-118): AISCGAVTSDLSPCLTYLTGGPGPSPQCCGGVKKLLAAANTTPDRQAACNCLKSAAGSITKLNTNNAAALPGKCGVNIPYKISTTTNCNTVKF
Description: (§1) Simulation of gastrointestinal digestion in vitro was performed as described in [15]. Briefly, gastric digestion was performed for 2 h, using 50 ng of pepsin (p) (Sigma) per 1 μg of rLen c 3 in 0.1 M HCl, pH 2.0 (final protein concentration 0.05 mM). For duodenal digestion, pH of the mixture resulting from gastric digestion was adjusted to 8.0 by addition of ammonium bicarbonate. The obtained mixture was incubated for 24 h at 37 °C with 2.5 ng of trypsin (t) (Promega, Madison, WI, USA) and 10 ng of α-chymotrypsin (ch) (Sigma) per 1 μg of the substrate. Degree of proteolysis was monitored by sodium dodecyl sulfate polyacrylamide gel electrophoresis (SDS-PAGE) under reducing conditions and reversed-phase high-performance liquid chromatography (RP-HPLC) on Luna C18 column (5 μm, 250 × 4.6 mm; Phenomenex, Torrance, CA, USA) at a flow rate of 0.5 mL/min, using a gradient of acetonitrile concentration from 5 to 65% for 45 min in 0.1% trifluoroacetic acid (TFA). Gel analysis was performed, using a densitometer. Electroblotting and subsequent N-terminal protein sequencing were performed as described. The protein was preheated at 100 °C for 30 min to study the effect of temperature on allergen stability. rLen c 3 was preloaded with various lipid ligands (LTP to lipid molar ratio 1:4) for 10 min, in order to investigate their effects on allergen resistance to proteolytic digest. As a control of the influence of lipid ligands on the work of proteolytic enzymes, the same reactions were carried out, using bovine α-casein (Sigma) as a substrate. Some independent experiments were performed in each case.

rLen c 3 [2] = molecular target: T1, rLen c 3; assay: TNS displacement lipid binding assay; parameters: species or system lentil; details: for IC50: 25 °C, 4 μM TNS, 4 μM rLen c 3, read-out: IC50 (TNS displacement)
Description: The ability of rLen c 3 to bind lipids was assayed by monitoring the displacement of the fluorescent probe TNS. Fluorescence intensity was measured at 25 °C with a F-2710 spectrofluorimeter (Hitachi, Tokyo, Japan), using a […] slit width for both excitation (λ = 320 nm) and emission (λ = 437 nm) and the measurement taken for no longer than 1.5–2 s. After equilibrating TNS (4 μM) in 10 mM phosphate buffer, pH 7.4, or 150 mM sodium chloride, pH 2.5, for 2 min with gentle mixing, the 2 mM of competing ligand was titrated into the 2 mL of 4 μM rLen c 3 solution in 1 μL aliquots. The resulting data were fitted by using a sigmoidal curve-fitting in GraphPad Prism from which the concentration able to displace 50% of the TNS (IC50) was calculated. The dependence of the ligand binding on temperature was performed at 20, 40, 60, 90, and 20 °C, after cooling down as previously described. Temperature was checked with a temperature probe in the cuvette. Each experiment was performed in triplicate, independently.

rLen c 3 [3] = molecular target: T1, rLen c 3; assay: Effect of lipid ligands on secondary structure and thermostability of rLen c 3 (CD spectroscopy); type: physicochemical, lentil; details: pH 7.4, ligand 1 mM
Description: (§2) Circular dichroism spectra were recorded at different temperatures, using a J-810 spectropolarimeter (Jasco, Hachioji, Tokyo, Japan) in a 0.1 cm path length quartz cell (Hellma GmbH & Co. KG, Mullheim, Germany) in the 190–250 nm range, and 0.2, using solutions of rLen c 3 in 10 mM phosphate buffer, pH 7.4, or 150 mM sodium chloride, pH 2.5, simulated gastric fluid, at a concentration of 17 µM. Fatty acids or lysolipids were added at a final concentration of 1 mM. Each experiment was performed twice, independently.

rLen c 3 [4] = molecular target: T1, rLen c 3; assay: ELISA of IgE binding to rLen c 3 preincubated with lipid ligands; parameters: species or system lentil; details: preincubation with 60 μM ligand, sera with 10 μM ligand; sera from 10 patients; p > 0.1
Description: To study the effects of lipid ligands on IgE binding capacity of allergen, rLen c 3 was covalently bound to Nunc Immobilizer Amino surface plates (Thermo Scientific, Waltham, MA, USA), according to peptide coupling protocol. rLen c 3 solution (100 μg/mL) in 100 mM sodium carbonate, pH 9.6, was added to the wells; after that, the plates were incubated at 25 °C for 2 h. Then 10 mM ethanolamine at the same buffer was used for the plates post-coupling at 25 °C for 1 h. Pre-incubation with PBS or lipid ligand solutions in PBS at concentration of 60 μM was performed overnight at 4 °C. After that, the plates were incubated with selected sera in 1:4 dilution, overnight, at 4 °C, with the absence or presence of 10 μM lipid ligands, due to the reversibility of Len c 3-ligand complexes. Subsequent steps of ELISA were carried out as described above. This experiment was performed twice, independently.

pepsin = assay: In vitro gastric digestion (SDS-PAGE); type: in vitro ADME; details: pepsin, pH 2.0, 2 h
Description: as §1, with “As a control of the influence of lipid ligands on the work of proteolytic enzymes, the same reactions were carried out, using bovine α-casein (Sigma) as a substrate. Some independent experiments were performed in each case.” left out

[5] = system: trypsin and α-chymotrypsin; assay: In vitro duodenal digestion after gastric digestion (SDS-PAGE densitometry); type: in vitro ADME
Description: as §1

[6] = system: specific IgE in sera of allergic patients; assay: ELISA of sIgE binding to intact, heated or digested rLen c 3; parameters: species or system human
Description: Sera from allergic patients (n = 100) with food and pollen allergy were obtained from the Clinical Diagnostic Center of G.N. Gabrichevsky Research Institute for Epidemiology and Microbiology. The work with human sera was approved by the local ethical committees of this Institute (FS-99-01-009026, Moscow, Russia). The amount of specific IgE (sIgE) to allergen extracts in the patient sera was determined by using RIDA qLine Allergy Panel 1-4 (R-Biopharm, Pfungstadt, Germany). Screening of sera containing sIgE to peach Pru p 3 and Len c 3 was performed by ELISA. For that, plate wells (Corning Incorporated, Corning, NY, USA) were coated with recombinant allergen (0.5 μg/well) in 0.01 M phosphate buffered saline (PBS), pH 7.4, for 1 h, at 37 °C; saturated with 2% bovine serum albumin (SERVA, Heidelberg, Germany) in PBS buffer for 1 h, at 37 °C; and then incubated with the sera of allergic patients (1:4 dilution), for 2 h, at 37 °C. Specific IgE binding was detected by using peroxidase-conjugated anti-human IgE from goat (Sigma) (1:2000 dilution), and 3,3′,5,5′-tetramethylbenzidine (TMB) liquid substrate system for ELISA (Sigma). The enzymatic reaction was stopped after 30 min by 2 N H2SO4 and absorbance values were determined at 450 nm. Moreover, 0.01 M PBS with 0.05% Tween-20 was used as a washing solution on each step. For sIgE binding experiments with the intact or heated (at 100 °C for 30 min) or digested (gastric and subsequent duodenal digestion for 2 h) rLen c 3, patient sera containing sIgE were selected (Table S3). Intact and treated rLen c 3 samples were coated in wells of 96-well plates (0.5 μg/well), and ELISA was performed as described above. Sera samples from non-allergic individuals were used as a negative control.

[7] = Circular dichroism spectroscopy of rLen c 3 (pH and heat stability, secondary structure); type: physicochemical; details: for random (secondary structure estimation from Far-UV CD spectra) / turn (secondary structure estimation from Far-UV CD spectra) / α-helix (secondary structure estimation from Far-UV CD spectra) / β-sheet (secondary structure estimation from Far-UV CD spectra): lipid 1 mM where added
Description: as §2

[8] = 20 °C end (after cooling down from 98.5 °C), pH 7.4

Molecule: CCCCCCCCCCCCCCCC(=O)OC[C@@H](O)COP(=O)(O)OCC(O)CO (stereo partly drawn) [LPPG, lyso-palmitoyl phosphatidylglycerol]
- Degradation of rLen c 3 in the presence of ligand (rLen c 3 [1]; 24 h of duodenal digestion, LTP to lipid molar ratio 1:4): ~ 55%
- Effect of protein preheating before digestion in the presence of ligand on rate of allergen degradation (rLen c 3 [1]; after 4 and 24 h, effect more pronounced with LPPC): slightly increased
- Effect of ligand on rLen c 3 degradation rate (proteolytic digestion) (rLen c 3 [1]; gastric then duodenal digestion, LTP to lipid molar ratio 1:4): more pronounced
- IC50 (rLen c 3 [2]; 10 mM phosphate buffer, pH 7.4): 4.3 ± 0.2 µM
- IC50 (rLen c 3 [2]; 150 mM sodium chloride, pH 2.5): 4.3 ± 0.03 µM
- Change of rLen c 3 affinity for the ligand at acidic pH (rLen c 3 [2]; pH 2.5 compared with pH 7.4): remained unchanged
- Ability of rLen c 3 to bind the ligand after heating and cooling down (rLen c 3 [2]; pH 7.4, heated from 20 to 90 °C, then cooled down to 20 °C): almost completely restored
- Recovery of rLen c 3 structure after cooling down in the presence of ligand (rLen c 3 [3]; cooling down to 20 °C after 98.5 °C): complete recovery of the native conformation
- Effect of ligand on rLen c 3 thermostability (resistance to thermal denaturation) (rLen c 3 [3]; heating up to 98.5 °C): most pronounced effect
- Effect of ligand on IgE binding capacity of rLen c 3 (rLen c 3 [4]): small increase

Molecule: rLen c 3: recombinant lentil allergen Len c 3, a lipid transfer protein, overexpressed in Escherichia coli
- Stability to gastric digestion (pepsin): remarkable stability
- Intact protein cleaved (densitometric gel analysis) ([5]; 30 min of duodenal digestion after 2 h gastric digestion): more than 65%
- Intact protein cleaved (densitometric gel analysis) ([5]; 2 h of duodenal digestion after 2 h gastric digestion): > 85%
- rLen c 3 degradation ([5]; 24 h of duodenal digestion): 100%
- Effect of protein preheating on degradation ([5]; preheating at 100 °C for 30 min before digestion): slightly increased an efficiency of the allergen degradation
- IgE-binding capacity after heating ([6]; 100 °C for 30 min, vs intact rLen c 3, patient sera 1:4): significantly (p < 0.001) reduced
- IgE-binding in rPru p 3 IgE+ sera ([6]; all rPru p 3 IgE+ sera, compared with rPru p 3): lower values than for rPru p 3
- IgE-binding capacity after proteolytic digestion ([6]; gastric and subsequent duodenal digestion for 2 h, vs intact rLen c 3, patient sera 1:4): significantly (p < 0.001) reduced
- random (secondary structure estimation from Far-UV CD spectra) [7, 8]: 34.9%
- turn (secondary structure estimation from Far-UV CD spectra) [7, 8]: 21.8%
- α-helix (secondary structure estimation from Far-UV CD spectra) [7, 8]: 5.6%
- β-sheet (secondary structure estimation from Far-UV CD spectra) [7, 8]: 37.7%
- random (secondary structure estimation from Far-UV CD spectra) ([7]; 20 °C, pH 7.4): 30.3%
- α-helix (secondary structure estimation from Far-UV CD spectra) ([7]; 20 °C, pH 7.4): 28.4%
- β-sheet (secondary structure estimation from Far-UV CD spectra) ([7]; 20 °C, pH 7.4): 19.1%
- Protein folding state on heating ([7]; 98.5 °C, pH 7.4): almost completely unfolded
- random (secondary structure estimation from Far-UV CD spectra) ([7]; 98.5 °C, pH 7.4): 33.9%
- turn (secondary structure estimation from Far-UV CD spectra) ([7]; 98.5 °C, pH 7.4): 22.0%
- α-helix (secondary structure estimation from Far-UV CD spectra) ([7]; 98.5 °C, pH 7.4): 6.6%
- β-sheet (secondary structure estimation from Far-UV CD spectra) ([7]; 98.5 °C, pH 7.4): 37.4%
- Recovery of CD spectrum after cooling down ([7]; cooled down to 20 °C after 98.5 °C, pH 7.4): not recovered
- CD spectrum at acidic pH mimicking gastric juice ([7]; pH 2.5 vs pH 7.4, 20 °C): remains almost unchanged
- Temperature required for allergen denaturation ([7]; pH 7.4, also shown in ref 17): above 80 °C
